# Data from the DeepSol protein solubility set.
# Test: soluble on expression in E. coli; label from the status in PepcDB or PDB records
row,Sequence,soluble on expression in E. coli
1,MGSDKIHHHHHHAALSTNTVAVEKAPDMVAVMGGEPEVMLDKALEALGGIGNFVKKGQKIVIKPNIGWDRSPELAGNTNPKLVKALVKKCLEAGASKVTVFDHTCDNWQKCYETSGIAEAVKEAGGIIMPANDEKYFKEVSIPGGVNLKSAKIHEALIEADAWINVPVLKNHGGAKMTCAMKNYMGIVWDRRFFHQNDLQQCIADICTWQKKPVLNIVDAYRIMHQNGPQGKSAADVATLKSLIASPNIVAIDTAALRLFNQVKKLDMAAVGHIGKGEALKLGTTNLDNVTIKRIKI,not soluble
2,MYDAALGRWHAVDPMSEKYYSWSPYTYCKNNPVLRIDLDGKDDYVISRSGRLFNETPIDKRGKGSTDNLYLSSDRSISVTVNQGLLGEMHSMQAKEQKENRVKKSYGSTQDLETAATVFKFAADHTTVEWKLDVYDDNGTRTAVVATDRDPYGVDNGVYAQNKLSVKGEKVIDIHSHLPGGTKGGAGNDFNLAKPQRKNAVYMKDNRVSTDKKDMIYEYTKNASRVNSIRVYDATDLLQYIKRK,not soluble
3,LDNEMLTLDIVASDLLTLQALNAARLKEAGAVDATFVTKAINEQPLNLGQGIWLSDSAEGNLRSAIAVSRAANAFDVDGETAAMLVSVAMNDDQPIAVLKRLADLLLDNKADRLLKADAATLLALLTSDDAPTDDV,not soluble
4,MLKGFTPWPDELAETYRKNGCWAGETFGDLLRDRAAKYGDRIAITCGNTHWSYRELDTRADRLAAGFQKLGIQQKDRVVVQLPNIKEFFEVIFALFRLGALPVFALPSHRSSEITYFCEFAEAAAYIIPDAYSGFDYRSLARQVQSKLPTLKNIIVAGEAEEFLPLEDLHTEPVKLPEVKSSDVAFLQLSGGSTGLSKLIPRTHDDYIYSLKRSVEVCWLDHSTVYLAALPMAHNYPLSSPGVLGVLYAGGRVVLSPSPSPDDAFPLIEREKVTITALVPPLAMVWMDAASSRRDDLSSLQVLQVGGAKFSAEAARRVKAVFGCTLQQVFGMAEGLVNYTRLDDPEEIIVNTQGKPMSPYDESRVWDDHDRDVKPGETGHLLTRGPYTIRGYYKAEEHNAASFTEDGFYRTGDIVRLTRDGYIVVEGRAKDQINRGGEKVAAEEVENHLLAHPAVHDAAMVSMPDQFLGERSCVFIIPRDEAPKAAELKAFLRERGLAAYKIPDRVEFVESFPQTGVGKVSKKALREAISEKLLAGFKK,soluble
5,MSLSEELSFSAMVKAELALLTPELPCCRRMELAGLVRALGRLELSGRGRFALTLSTDSAPVSRKVIRLLKSVSPVRYEVMVMRRRKLRKNLVYRVHIPHQPGVAELLQLAGFIDEAGRPADWVEPPELANDHCRRAFLRGTFLGSGWVAGPEKQHHLEITTTATEAADALGQMLFRGGIAARMVARRESLVLYIKEADQIIRFLGLVGAHQALLRYEEVRVIKEMKNQVNRQVNAEVANMTKQADAAARQVEAIKRLEAAGALERVSPPLRELAGLRLAYPDASLKELGELCRPPVSKSGAAHRMRQLMALAESLEEGHHHHHH,soluble
6,MGSDKIHHHHHHMTLSDPRFISLNQWLNCYFSDDVTPILISGDASFRRYFRVFAHDTSYIIADSPPALVPIAPFIALSSAYAAAGLTVPKVIASDADQGFMLLSDLGDTQLLSVLTDDNVADYYCRALALLPQVATVVESQDPVSGITQPLPLYDEAFVRRELGIFTEWLLARHLQLELGDEERTLVDESFDLLVKNALAQPKVGMHRDFHSRNLMLKDGGLCVIDFQDAVLGPVTYDAVSLLRDCYIRWPQAMVLELIQQHYQQVLESGHLPEGTSFRQYQSWFDLMGLQRHIKAAGIFARLYYRDNKPAYMADIPLTLAYIVDIARMYPELAPFAAWVESRVIPAFNLPLKQQDKQPGSSR,not soluble
7,MPPVYSQPELSISIAGLRLQRPVGNASGILGWEPREARLVEEGGGGFFVAKSVTYQPRKGYPQPHLYPVAGGIVNAVGLANPGFREASKMLAQTVEEASIPVIASIAGGAPGEWVEMASTLEEAGVSAVELNLSCPHFAGGGLELGQDPAAVASVVSAVASTLRIPVIAKLGYSDRLVDAASKALEAGARGLTLINSMRAMKIDVYAKKPVLGNRVGGLSGKPIHPIAVRAVYEVYGETRADIFAAGGVESWEDAVEFYLAGAKAVQVGAAFITIGPHVLRSIVEGVRRYLWVEGFRSLQDIVGYAHRA,soluble
8,MGSDKIHHHHHHMSADGSEYGRYFEQLQKVNLTVRLGDTGSFDGTAAITSLKGSLAWLELFGAEQPPPNTLSEGAEVSVSVWTGGALCRCDGRVETLRDDRQFAIRLVGRVRELQRREYFRLDVSIPFSYELLAGVSPEEAQERWLHERMDSWRSPAMVQEGSSWRVVDWNGRDIPSARANLSGGGMRFRVSEDVASGTLMLVSLFLPHPQPRVICVLAEALRCAEITLTLQAGTHYSLSMRFITISDKDREAVISYLFSEQRRELMSKSDRFQIGGRR,not soluble
9,MPFIYRRRVQFYETDAQGIVHHSNYFRYFEEARGEFLRSKGFPYSKMRDMGLEVVLLNAYCEYKKPLFYDDVFEVHLNLEELSRFTFTFSYIVFKEDIAVAKANTKHCMVKNGKIVSIPKEVLEVLKD,soluble
10,MANSAGSMADNSKTRVVVGMSGGVDSSVTALLLKEQGYDVIGIFMKNWDDTDENGVCTATEDYKDVAKVADQIGIPYYSVNFEKEYWDRVFEYFLAEYRLGRTPNPDVMCNKEIKFKAFLDYAMQLGADYVATGHYAQVETDENGVVHMLRGIDNNKDQTYFLSQLSQAQLAKTMFPLGGMEKSEVRAIAERAGLATAKKKDSTGVCFIGEKNFKEFLSNYLPAKKGNMVTEDGEIKGQHDGLMYYTIGQRQGLGIGGGGKTQEPWFVIGKDLTTNTLYVGQGFHHEKLYATHLEASEVHFTVDTPMPKEFDCTAKFRYRQADIPVHVSLSEDGTKATVTFKEPARAVTPGQAVVFYDGMECLGGGLIDRAYQDEKELQYVLEHHHHHH,not soluble
11,MKVLILRPAELLSETIRRFREEGFDAYGCPFIKLIYTDFDVPEHDFAIVTSQNAARVLRERGVRLKRVIAIGKKTAELIEAEEVLLPSKFDSETLYEEFAEMLRGKRVVAFRSNAGSEAVKRLSEVADFREIQVYRIEKLQGEEQRREVEKVREGFYDAIVFSSSMIARSLLELCDEKCLEALKNIFVVAIGPPTAKVLAEKGIRAEIPEEYTFDGVIELLKSKKMLEHHHHHH,soluble
12,MHTGCCTTKFDTEVLIIGNGPAGIALSSFLSGMHPFYDATHPHENVTVHEKLLANHDFSLIDQDLSWSSNLTELSQSGRPLSVLYDMLVRPGADMGSDAPGCIQWELNRRREIPHMVIGETKIGGSWNEYDAEMLTVSFSDWMDMPGFTMEQWLGGRPLVKRLPSVAIATYLKKYVERLRLRKKFHQYFVVNSIKKIGDVWVTSGKRSTDGRSFVIRSKQVVVACGKTSPRKLQLPNEEHCSSNIVYDVRALKERLDATKKTVIDEDENYDTPSTSTCSPVIVVGDGVSSVDCVRHCLERDIPVVHVIRRTLRELRNVMLSRLSPIHYSEYTDIYRMMIGRSVHKNYQRVLDASITSVSKIHVEITTGSNREIIEMPYSTVAVCIGRESHFSTVFENAHTFLDYQSEQDETLFAVGAYAGDHFVRFLVGGCLRVAQHITGAANNNNVTAKLLPIC,not soluble
13,MSSSDHIHVPDGLAESYSRSGGEEGRAWIAGLPALVARCVDRWELKRDGGVRSGEASLVVPVLRADGTRAALKLQMPREETTAALIGLRAWGGDGMVRLLDHDEESSTMLLERLDGSRTLASVEDDDEAMGVLAGLLNRLHSVPAPPGLRGLGEIAGAMVEEVPSAVDSLADPEDRSRLRGWASAVAELVGEPGDRVLHWDLHYENVLAAEREPWLAIDPEPLVGDPGFDLWPALDTGWERIEATGDARRVVRRRFDLLTEALELDRGRAAGWTLARLLQNTLWDIEDGLTAIAPSQIAVAEALAKP,not soluble
14,MAHHHHHHMHMFTNDWKSILAPLKSCRIKQQFDDREFLADFAMGLKLDFNNKYLVLDASTELLKFTAIESSDCCNRNCLPKMCIPINMKILTYGRELSRPDIVVEKDCSCTMLCLNRPTIKMYDFSNNNNKELIGTIKAPFSCCSYKFDLYDSAMRKIIYMDDTCCQLSILFPCPCGPFKFSNFFLRDAKTHEKVAHLQKEVPFLKFVKRDIDNYTLNFEQVQNPEWKMMLLAFSLFMDYIYYDRK,not soluble
15,MPLSGEYAPSPLDWSREQADTYMKSGGTEGTQLQGKPVILLTTVGAKTGKLRKTPLMRVEHDGQYAIVASLGGAPKNPVWYHNVVKNPRVELQDGTVTGDYDAREVFGDEKAIWWQRAVAVWPDYASYQTKTDRQIPVFVLTPVRAGG,soluble
